This note sets out measurements from US8435961B2, “Methods and compositions for increasing the activity of inhibitory RNA” (Massachusetts Institute of Technology, priority 2009, dated 2013).

For the experiment, the system named is RNAi activity in 293T cells. In words: Modified pGL4.72[hRlucCP] vector luciferase assay of RNAi activity. Type of experiment: cell-based. The note with it: overexpression from pEGFP-C1, 10 nM vector-target RNAi, 48 hours, vs EGFP- and G3BP-overexpressing cells (FIG. 30). The source says: Assays for measuring RNAi activity in a cell are available in the art. For example, psiCHECK™-1, psiCHECK™-2, and pGL4.72[hRlucCP]™ vector assay systems provide methods for the measurement of RNAi activity in a cell. In these assays systems, luciferase is used a primary reporter gene and a target sequence (i.e., the target of one or more RNAi molecules) is cloned a multiple cloning region located downstream of the luciferase translational stop codon. Initiation of the RNAi process towards the target gene results in the cleavage and subsequent degradation of the fusion mRNA encoded by the vectors (i.e., upon treatment of the transfected cell with a vector-target RNAi molecule). Measurement of decreased luciferase activity in the transfected cells following treatment with the vector-target RNAi indicates the activity of RNAi in the cell. […]
Additional experiments were performed to determine the effect of PARP13 knockdown on miRNA activity. […] In a second set of experiments, the ability of the vector-target RNAi to reduce the expression of luciferase was measured in 293T cells transfected with pGL4.72[hRlucCP]™ vector, 20 nM vector-target RNAi, and 20 nM of negative RNAi control for PARP13 siRNA (siNeg; AllStars Negative Control siRNA; Qiagen Catalog No. 1027280) or PARP13 siRNA (siPARP13; SEQ ID NO: 40) following treatment with 0 or 30 nM pateamine A for 2 hours. […]

B1: PARP13: PARP13 overexpressed from a pEGFP-C1 plasmid (protein)
chain: ADPEVCCFITKILCAHGGRMALDALLQEIALSEPQLCEVLQVAGPDRFVVLETGGEAGITRSVVATTRARVCRRKYCQRPCDNLHLCKLNLLGRCNYSQSERNLCKYSHEVLSEENFKVLKNHELSGLNKEELAVLLLQSDPFFMPEICKSYKGEGRQQICNQQPPCSRLHICDHFTRGNCRFPNCLRSHNLMDRKVLAIMREHGLNPDVVQNIQDICNSKHMQKNPPGPRAPSSHRRNMAYRARSKSRDRFFQGSQEFLASASASAERSCTPSPDQISHRASLEDAPVDDLTRKFTYLGSQDRARPPSGSSKATDLGGTSQAGTSQRFLENGSQEDLLHGNPGSTYLASNSTSAPNWKSLTSWTNDQGARRKTVFSPTLPAARSSLGSLQTPEAVTTRKGTGLLSSDYRIINGKSGTQDIQPGPLFNNNADGVATDITSTRSLNYKSTSSGHREISSPRIQDAGPASRDVQATGRIADDADPRVALVNDSLSDVTSTTSSRVDDHDSEEICLDHLCKGCPLNGSCSKVHFHLPYRWQMLIGKTWTDFEHMETIEKGYCNPGIHLCSVGSYTINFRVMSCDSFPIRRLSTPSSVTKPANSVFTTKWIWYWKNESGTWIQYGEEKDKRKNSNVDSSYLESLYQSCPRGVVPFQAGSRNYELSFQGMIQTNIASKTQKDVIRRPTFVPQWYVQQMKRGPDHQPAKTSSVSLTATFRPQEDFCFLSSKKYKLSEIHHLHPEYVRVSEHFKASMKNFKIEKIKKIENSELLDKFTWKKSQMKEEGKLLFYATSRAYVESICSNNFDSFLHETHENKYGKGIYFAKDAIYSHKNCPYDAKNVVMFVAQVLVGKFTEGNITYTSPPPQFDSCVDTRSNPSVFVIFQKDQVYPQYVIEYTEDKACVIS
Regarding B1, the “decrease in the level of miRNA-mediated repression compared to control cells” value is listed as 3 fold.
